Results published in patent US11986450B2, “Methods and compositions for treating infection and inflammation with selenocyanate” (National Jewish Health, priority 2017, dated 2024).

Substrate: N#CSO
Experiment: Kinetic analysis of HOSCN metabolism
Format: biochemical
Details: other: recombinant mouse Sec-TrxR
From the text: FIGS. 3A-3B. Kinetic analysis of HOSCN metabolism by recombinant mouse Sec-TrxR and recombinant E. coli Cys-TrxR. […] Sec-TrxR forms that lack a selenocysteine (Sec489Cys) or truncated by the last 8 amino acids (D8) had diminished activity.

B1: recombinant mouse Sec-TrxR (Mus musculus) (protein)
chain: GGQQSFDLLVIGGGSGGLACAKEAAQLGKKVAVADYVEPSPRGTKWGLGGTCVNVGCIPKKLMHQAALLGGMIRDAHHYGWEVAQPVQHNWKTMAEAVQNHVKSLNWGHRVQLQDRKVKYFNIKASFVDEHTVRGVDKGGKATLLSAEHIVIATGGRPRYPTQVKGALEYGITSDDIFWLKESPGKTLVVGASYVALECAGFLTGIGLDTTVMMRSIPLRGFDQQMSSLVTEHMESHGTQFLKGCVPSHIKKLPTNQLQVTWEDHASGKEDTGTFDTVLWAIGRVPETRTLNLEKAGISTNPKNQKIIVDAQEATSVPHIYAIGDVAEGRPELTPTAIKAGKLLAQRLFGKSSTLMDYSNVPTTVFTPLEYGCVGLSEEEAVALHGQEHVEVYHAYYKPLEFTVADRDASQCYIKMVCMREPPQLVLGLHFLGPNAGEVTQGFALGIKCGASYAQVMQTVGIHPTCSEEVVKLHISKRSGLEPTVTGCUG
  Km: 30 µM
